Drawing on patent publication US20200199241A1 (Chugai, published 2020), this text covers Kd for 55 molecules.

Changes are numbered by the printed parent chain. Numbers in names are those of the source.

B1: IgG1-F334 (antibody)
heavy: QVQLQESGPGLVKPSETLSLTCAVSGHSISHDHAWSWVRQPPGEGLEWIGFISYSGITNYNPSLQGRVTISRDNSKNTLYLQMNSLRAEDTAVYYCARSLARTTAMDYWGEGTLVTVSSASTKGPSVFPLAPSSKSTSGGTAALGCLVKDYFPEPVTVSWNSGALTSGVHTFPAVLQSSGLYSLSSVVTVPSSSLGTQTYICNVNHKPSNTKVDKKVEPKSCDKTHTCPPCPAPELLGGPKVFLFPPKPKDTLYISRTPEVTCVVVDVSHEFPEVKFNWYVDGVEVHNAKTKPREEQYNSTYRVVSVLTPLHQDWLNGKEYKCKVSGKALPAPIEKTISKAKGQPREPQVYTLPPSRDELTKNQVSLTCLVKGFYPSDIAVEWESNGQPENNYKTTPPVLDSDGSFFLYSKLTVDKSRWQQGNVFSCSVIHEALHYHYTQKSLSLSP
light: not shown
notes: EU numbering; copies: 2 + 2
B2: IgG1-F408 (antibody)
heavy: B1 heavy with K241S, Y254M, P259V, F272D, N288E, P310V, G327N, I430L
light: not shown
notes: EU numbering; copies: 2 + 2
B3: IgG1-F391 (antibody)
heavy: B1 heavy with K241S, Y254W, F272D, L311A, G327N, I430Y
light: not shown
notes: EU numbering; copies: 2 + 2
B4: IgG1-F379 (antibody)
heavy: B1 heavy with Y254W, T258E, F272D, Q313A, G327N, I430Y
light: not shown
notes: EU numbering; copies: 2 + 2
B5: IgG1-F349 (antibody)
heavy: B1 heavy with F272D, L311P, G327N, I430L
light: not shown
notes: EU numbering; copies: 2 + 2
B6: IgG1-F339 (antibody)
heavy: B1 heavy with L311E, G327N
light: not shown
notes: EU numbering; copies: 2 + 2
B7: IgG1-F400 (antibody)
heavy: B1 heavy with N288E, Q313A, G327N
light: not shown
notes: EU numbering; copies: 2 + 2
B8: IgG1-F368 (antibody)
heavy: B1 heavy with E384A
light: not shown
notes: EU numbering; copies: 2 + 2
B9: IgG1-F394 (antibody)
heavy: B1 heavy with F272D, T309Q, P310V, Q313A, G327N
light: not shown
notes: EU numbering; copies: 2 + 2
B10: IgG1-F344 (antibody)
heavy: B1 heavy with F272D, G327N, I430L
light: not shown
notes: EU numbering; copies: 2 + 2
B11: IgG1-F403 (antibody)
heavy: B1 heavy with K241S, Y254M, P259V, F272D, T309A, P310V, G327N, I430L, Y436W
light: not shown
notes: EU numbering; copies: 2 + 2
B12: IgG1-F401 (antibody)
heavy: B1 heavy with N288E, G327N, P389E
light: not shown
notes: EU numbering; 'N431Y' as printed, probably N434Y; copies: 2 + 2
B13: IgG1-F358 (antibody)
heavy: B1 heavy with F272D, T309Q, P310V, G327N, I430M
light: not shown
notes: EU numbering; copies: 2 + 2
B14: IgG1-F354 (antibody)
heavy: B1 heavy with F272D, T309Q, G327N, I430L
light: not shown
notes: EU numbering; copies: 2 + 2
B15: IgG1-F343 (antibody)
heavy: B1 heavy with G327N, I430L
light: not shown
notes: EU numbering; copies: 2 + 2
B16: IgG1-F369 (antibody)
heavy: B1 heavy with K241S, P259V, F272D, T309Q, P310V, G327N
light: not shown
notes: EU numbering; copies: 2 + 2
B17: IgG1-F375 (antibody)
heavy: B1 heavy with Y254W, F272D, N288E, G327N, I430Y
light: not shown
notes: EU numbering; copies: 2 + 2
B18: IgG1-F363 (antibody)
heavy: B1 heavy with K241S, Y254M, P259V, F272D, T309Q, P310V, Q313A, G327N, I430L
light: not shown
notes: EU numbering; copies: 2 + 2
B19: IgG1-F390 (antibody)
heavy: B1 heavy with K241S, Y254W, F272D, L311D, G327N, I430Y
light: not shown
notes: EU numbering; copies: 2 + 2
B20: IgG1-F356 (antibody)
heavy: B1 heavy with L311E, G327N, P389E, I430M
light: not shown
notes: EU numbering; 'Y308P' as printed, probably V308P; copies: 2 + 2
B21: IgG1-F336 (antibody)
heavy: B1 heavy with T309Q, Q313A, G327N
light: not shown
notes: EU numbering; copies: 2 + 2
B22: IgG1-F364 (antibody)
heavy: B1 heavy with K241S, Y254M, P259V, F272D, T309Q, P310V, Q313A, I430L
light: not shown
notes: EU numbering; copies: 2 + 2
B23: IgG1-F365 (antibody)
heavy: B1 heavy with K241S, Y254M, P259V, F272D, V307A, T309Q, P310V, G327N, I430L
light: not shown
notes: EU numbering; copies: 2 + 2
B24: IgG1-F380 (antibody)
heavy: B1 heavy with Y254W, T258E, F272D, N288E, G327N, I430Y
light: not shown
notes: EU numbering; copies: 2 + 2
B25: IgG1-F376 (antibody)
heavy: B1 heavy with T258E, N288E, G327N, I430M
light: not shown
notes: EU numbering; copies: 2 + 2
B26: IgG1-F399 (antibody)
heavy: B1 heavy with N288E, T309Q, G327N
light: not shown
notes: EU numbering; copies: 2 + 2
B27: IgG1-F402 (antibody)
heavy: B1 heavy with K241S, Y254M, P259V, F272D, T309Q, P310V, G327N, I430L, Y436W
light: not shown
notes: EU numbering; copies: 2 + 2
B28: IgG1-F360 (antibody)
heavy: B1 heavy with K241S, Y254M, P259V, F272D, T309Q, P310V, G327N, I430V
light: not shown
notes: EU numbering; copies: 2 + 2
B29: IgG1-F405 (antibody)
heavy: B1 heavy with K241S, Y254M, P259V, F272D, T309Q, P310V, L311P, G327N, I430L
light: not shown
notes: EU numbering; copies: 2 + 2
B30: IgG1-F409 (antibody)
heavy: B1 heavy with K241S, Y254M, P259V, F272D, P310V, G327N, P389E, I430L
light: not shown
notes: EU numbering; copies: 2 + 2
B31: IgG1-F395 (antibody)
heavy: B1 heavy with T258E, F272D, G327N, I430M
light: not shown
notes: EU numbering; copies: 2 + 2
B32: IgG1-F338 (antibody)
heavy: B1 heavy with N288E, G327N
light: not shown
notes: EU numbering; copies: 2 + 2
B33: IgG1-F381 (antibody)
heavy: B1 heavy with K241S, Y254M, P259V, F272D, T309A, P310V, Q313A, G327N, I430L
light: not shown
notes: EU numbering; copies: 2 + 2
B34: IgG1-F374 (antibody)
heavy: B1 heavy with Y254W, T258E, F272D, G327N, I430Y
light: not shown
notes: EU numbering; copies: 2 + 2
B35: IgG1-F377 (antibody)
heavy: B1 heavy with Y254W, F272D, T309P, P310V, G327N, I430Y
light: not shown
notes: EU numbering; copies: 2 + 2
B36: IgG1-F359 (antibody)
heavy: B1 heavy with K241S, Y254M, P259V, F272D, T309Q, P310V, G327N
light: not shown
notes: EU numbering; copies: 2 + 2
B37: IgG1-F387 (antibody)
heavy: B1 heavy with K241S, F272D, L311D, G327N, I430M
light: not shown
notes: EU numbering; copies: 2 + 2
B38: IgG1-F350 (antibody)
heavy: B1 heavy with F272D, L311R, G327N, I430L
light: not shown
notes: EU numbering; copies: 2 + 2
B39: IgG1-F372 (antibody)
heavy: B1 heavy with Y254W, F272D, G327N, I430Y
light: not shown
notes: EU numbering; copies: 2 + 2
B40: IgG1-F396 (antibody)
heavy: B1 heavy with N288E, T309Q, P310V, Q313A, G327N
light: not shown
notes: EU numbering; copies: 2 + 2
B41: IgG1-F404 (antibody)
heavy: B1 heavy with K241S, Y254M, P259A, F272D, T309Q, P310V, L311P, G327N, I430L
light: not shown
notes: EU numbering; 'M928L' read as M428L; copies: 2 + 2
B42: IgG1-F389 (antibody)
heavy: B1 heavy with K241S, Y254W, F272D, L311E, G327N, I430Y
light: not shown
notes: EU numbering; copies: 2 + 2
B43: IgG1-F397 (antibody)
heavy: B1 heavy with T309Q, P310V, Q313A, G327N, P389E
light: not shown
notes: EU numbering; 'T370Q' as printed, probably T307Q; copies: 2 + 2
B44: IgG1-F406 (antibody)
heavy: B1 heavy with K241S, Y254M, P259A, F272D, T309Q, P310V, L311R, G327N, I430L
light: not shown
notes: EU numbering; copies: 2 + 2
B45: IgG1-F353 (antibody)
heavy: B1 heavy with F272D, P310V, L311R, G327N, I430L
light: not shown
notes: EU numbering; copies: 2 + 2
B46: IgG1-F362 (antibody)
heavy: B1 heavy with K241S, Y254M, P259V, F272D, T309Q, P310V, I430L
light: not shown
notes: EU numbering; copies: 2 + 2
B47: IgG1-F407 (antibody)
heavy: B1 heavy with K241S, Y254M, P259V, F272D, T309Q, P310V, L311R, G327N, I430L
light: not shown
notes: EU numbering; copies: 2 + 2
B48: IgG1-F386 (antibody)
heavy: B1 heavy with K241S, F272D, L311E, G327N, I430M
light: not shown
notes: EU numbering; copies: 2 + 2
B49: IgG1-F367 (antibody)
heavy: B1 heavy with E260H, T309Q, Q313A, G327N, I430M
light: not shown
notes: EU numbering; copies: 2 + 2
B50: IgG1-F373 (antibody)
heavy: B1 heavy with Y254W, F272D, Q313A, G327N, I430Y
light: not shown
notes: EU numbering; copies: 2 + 2
B51: IgG1-F337 (antibody)
heavy: B1 heavy with T309Q, P310V, Q313A, G327N
light: not shown
notes: EU numbering; copies: 2 + 2
B52: IgG1-F388 (antibody)
heavy: B1 heavy with K241S, F272D, L311A, G327N, I430M
light: not shown
notes: EU numbering; copies: 2 + 2
B53: IgG1-F335 (antibody)
heavy: B1 heavy with T258E, G327N
light: not shown
notes: EU numbering; copies: 2 + 2
B54: IgG1-F352 (antibody)
heavy: B1 heavy with F272D, P310V, L311P, G327N, I430L
light: not shown
notes: EU numbering; copies: 2 + 2
B55: IgG1-F392 (antibody)
heavy: B1 heavy with F272D, N288E, G327N
light: not shown
notes: EU numbering; copies: 2 + 2

For the assay, the target named is T1, human FcRn (soluble human FcRn complexed with β2-microglobulin) (human, UniProt P61769 21-119, limits assumed).
T1 construct: also called hFcRn
T1 sequence (chain, as listed by the source limits assumed, chain 1 of 2): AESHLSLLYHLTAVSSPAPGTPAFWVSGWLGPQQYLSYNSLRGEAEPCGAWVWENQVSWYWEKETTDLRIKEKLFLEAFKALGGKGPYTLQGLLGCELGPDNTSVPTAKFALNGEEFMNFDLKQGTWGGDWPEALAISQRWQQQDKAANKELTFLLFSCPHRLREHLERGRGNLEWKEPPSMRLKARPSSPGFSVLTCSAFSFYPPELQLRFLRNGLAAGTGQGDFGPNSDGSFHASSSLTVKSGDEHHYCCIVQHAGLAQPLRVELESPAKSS
T1 sequence (P61769 21-119 limits assumed, chain 2 of 2): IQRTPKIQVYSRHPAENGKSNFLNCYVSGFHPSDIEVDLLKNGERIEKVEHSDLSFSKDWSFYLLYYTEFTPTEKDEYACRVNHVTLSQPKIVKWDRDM
The assay is described as follows: SPR, pH 7.0.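 Further: antibodies captured on a Protein L sensor chip with human FcRn injected as analyte, KD calculated from fitted association and dissociation rate constants.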 A general note: Surface plasmon resonance follows binding to a sensor surface in real time, without labels.
In general, Kd refers to the constant that tells how readily two partners part at equilibrium. Lower therefore signals tighter binding. Take B1: the Kd amounted to 19 nM.
The result for B2 reads 250 nM; that for B3, 36 nM.
In turn, B4 registered a Kd of 9 nM.
B5 displayed a Kd of 150 nM.
Consider B6, for which the affinity, expressed as Kd, was 19 nM.
The result for B7 reads 6.1 nM; that for B8, 20 nM; that for B9, 53 nM.
The molecule B10 had a Kd of 30 nM.
The result for B11 reads 51 nM; that for B12, 6.9 nM.
The result for B13 reads 100 nM; that for B14, 28 nM.
The result for B15 reads 32 nM; that for B16, 75 nM; that for B17, 5.5 nM.
The molecule B18 showed a Kd of 41 nM.
Turning to B19, the affinity, expressed as Kd, was 68 nM.
B20 showed a Kd of 34 nM.
The result for B21 reads 14 nM; that for B22, 35 nM.
For B23, the Kd is 51 nM.
In the case of B24, the dissociation constant Kd was 5.6 nM.
The result for B25 reads 9.6 nM.
B26: the Kd worked out at 6.5 nM.
On to B27, for which the Kd stood at 23 nM.
B28 had a Kd of 1300 nM.
The result for B29 reads 170 nM; that for B30, 200 nM.
The result for B31 reads 24 nM; that for B32, 7.7 nM; that for B33, 110 nM.
The result for B34 reads 12 nM.
As for B35, the dissociation constant Kd was 130 nM.
B36 yielded a Kd of 420 nM.
The result for B37 reads 150 nM; that for B38, 170 nM; that for B39, 13 nM.
The result for B40 reads 20 nM.
The result for B41 reads 94 nM.
Regarding B42, the affinity, expressed as Kd, was 17 nM.
B43: the Kd is 45 nM.
For B44, binding was characterised by a dissociation constant (Kd) of 150 nM.
The result for B45 reads 1100 nM; that for B46, 54 nM.
B47 yielded a Kd of 160 nM.
Take B48: binding was characterised by a dissociation constant (Kd) of 32 nM.
The result for B49 reads 15 nM; that for B50, 11 nM.
With B51, the affinity, expressed as Kd, was 56 nM.
The result for B52 reads 70 nM; that for B53, 15 nM.
The result for B54 reads 600 nM; that for B55, 6.9 nM.
